Consider four molecules from US20130130268A1 (published 2013).

For the experiment, the target named is T1, His-tagged PDGFR alpha (aminoacids 1-834 of human PDGFR alpha fused to a 6×histidine tag) (human, UniProt P16234 24-834).
T1 construct: Complete extracellular and transmembrane regions plus part of the intracellular domain; Expressed in HeLa cells, purified from lysates and immobilized on the IAsys biosensor; The cDNA encodes residues 1-834; also called immobilized His-tagged PDGFR alpha; truncated conformer of PDGFR alpha
T1 sequence (P16234 other isoform, or with tags, fused parts or gaps): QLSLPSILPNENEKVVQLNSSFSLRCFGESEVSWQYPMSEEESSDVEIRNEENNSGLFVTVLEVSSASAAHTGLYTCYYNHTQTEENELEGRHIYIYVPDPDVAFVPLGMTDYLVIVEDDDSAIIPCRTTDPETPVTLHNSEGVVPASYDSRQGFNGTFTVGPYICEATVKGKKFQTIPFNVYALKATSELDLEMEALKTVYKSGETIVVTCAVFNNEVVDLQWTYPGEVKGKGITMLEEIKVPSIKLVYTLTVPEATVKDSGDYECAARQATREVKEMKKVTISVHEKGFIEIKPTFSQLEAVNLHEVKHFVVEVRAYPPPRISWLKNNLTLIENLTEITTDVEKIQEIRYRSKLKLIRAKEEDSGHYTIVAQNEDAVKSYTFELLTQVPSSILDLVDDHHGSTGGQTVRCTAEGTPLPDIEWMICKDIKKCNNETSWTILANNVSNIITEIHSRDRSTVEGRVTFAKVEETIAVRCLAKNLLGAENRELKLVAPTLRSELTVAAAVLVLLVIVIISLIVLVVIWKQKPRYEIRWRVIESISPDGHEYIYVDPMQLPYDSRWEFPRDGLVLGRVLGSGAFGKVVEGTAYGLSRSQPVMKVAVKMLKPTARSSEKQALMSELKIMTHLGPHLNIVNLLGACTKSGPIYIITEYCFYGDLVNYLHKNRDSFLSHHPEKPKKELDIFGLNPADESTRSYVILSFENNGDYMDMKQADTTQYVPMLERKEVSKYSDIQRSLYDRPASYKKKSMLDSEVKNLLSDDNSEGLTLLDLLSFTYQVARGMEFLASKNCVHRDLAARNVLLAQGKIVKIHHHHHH
Briefly: IAsys optical biosensor, immobilized His-tagged PDGFR alpha. The procedure:
A detailed characterization of rHumaab interaction with human PDGFR alpha was performed on an optical biosensor, using as a molecular bait a homemade truncated conformer of this receptor containing the complete extracellular and transmembrane regions joined to a poly-histidine tail (HIS tag) replacing part of the intracellular domain, and serving both as an anchor to the biosensor surface and as a spacer. Preservation of proper folding of the immobilized receptor into a naive-like conformation was verified by monitoring the interaction with its natural binding partner (PDGF-BB) and with two mouse monoclonal antibodies specific for conformational PDGFR alpha epitopes (FIG. 6a). Using this approach, both kinetics and equilibrium parameters of the interaction between PDGF-BB, each rHumaab and PDGFR alpha were determined. […] Additionally, the analysis of association and dissociation rate constants for soluble ligands binding to PDGFR alpha, further defined the mechanistic properties of the macromolecular recognition process. […] Conversely, differences in equilibrium constants among rHumaab were reflected by corresponding differences in dissociation rate constants (kdiss=, 0.035 s⁻¹, 0.02 s⁻¹, and 0.003 s⁻¹, respectively for Vk13B8, Vk16F4 and Vlambda16F4).

B1: Vlambda16F4 rHumaab (antibody, human IgG1, V domains shown)
VH: GLVKPLETLSLTCSVSGGSVSDGSYFWNWIRQPPGKGLEWIGYAYSRGTTNYSPSLKGRITISVDKSKNQISLKLTSVTPADTAVYYCARDSFEIWGQGTMVTV
VL: QSALTQPASVSGSPGQSITISCTGTSSDVGGYNYVSWYQHHPGKAPKLMIYEVSHRPSGVSNRFSGSKSGNTASLTISGLQAEDEADYYCSSYTSSSHVVFGGGTKLTVL
notes: Tested as a whole human IgG1 made in CHO cells (pDR12 vector, b12 constant regions, with Fc)
A word on the Kd: it is the free concentration of one partner at which half of the binding sites on the other are occupied at equilibrium, for simple one-to-one binding. A low value points to a tighter complex. In general, koff refers to a measure of how fast the partners let go of each other. Low values mean slow dissociation, high ones fast dissociation. Turning to B1, binding was put at a Kd of 16.6 nM and the dissociation rate constant (koff) was determined as 0.003 s⁻¹.

B2: Vk16F4 rHumaab (antibody, human IgG1, V domains shown)
VH: B1 VH
VL: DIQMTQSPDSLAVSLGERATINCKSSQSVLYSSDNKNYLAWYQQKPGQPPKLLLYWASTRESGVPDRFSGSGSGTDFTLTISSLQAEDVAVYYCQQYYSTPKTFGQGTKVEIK
notes: Tested as a whole human IgG1 made in CHO cells (pDR12 vector, b12 constant regions, with Fc); also called Vκ16F4; rHumaab VK16F4
Molecule B2 returned a Kd of 71.4 nM and a koff of 0.02 s⁻¹.

B3: Vk13B8 rHumaab (antibody, human IgG1, V domains shown)
VH: B1 VH
VL: DIQMTQSPSSLSASVGDRVTITCRASQGISNYLAWFQQKPGKAPKSLIYAASSLQSGVPSKFSGSGSGTDFTLTISSLQPEDFATYYCQQYNSFPYTFGQGTKLEIK
notes: Tested as a whole human IgG1 made in CHO cells (pDR12 vector, constant regions of antibody b12, with Fc); also called Vκ13B8; recombinant human monoclonal auto-antibody Vk13B8
In turn, B3 had a Kd of 184 nM and a koff of 0.035 s⁻¹.

B4: human PDGF-BB (ligand)
chain 1: SLGSLTIAEPAMIAECKTRTEVFEISRRLIDRTNANFLVWPPCVEVQRCSGCCNNRNVQCRPTQVQLRPVQVRKIEIVRKKPIFKKATVTLEDHLACKCETVAAARPVT
chain 2: B4 chain 1
notes: The name BB means a homodimer of B chains
Broadly, the kon is the second-order rate constant of association. Higher therefore signals faster complex formation. For B4, the Kd is 0.23 nM and the on-rate (kon) came to 3e+07 M⁻¹ s⁻¹.
